Positions count from the first letter of the chain named.
T1: APBA3_1, O96018
T1 sequence (O96018 389-490, limits assumed, looked up): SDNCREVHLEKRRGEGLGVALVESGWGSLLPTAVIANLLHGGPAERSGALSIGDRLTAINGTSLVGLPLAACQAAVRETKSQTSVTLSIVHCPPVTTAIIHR

T2: DVL3, Q92997
T2 sequence (Q92997 244-331, limits assumed, looked up): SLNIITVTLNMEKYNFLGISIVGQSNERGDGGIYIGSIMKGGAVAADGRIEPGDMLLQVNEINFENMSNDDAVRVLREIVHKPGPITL

T3: FRMPD1, Q5SYB0
T3 sequence (Q5SYB0 52-145, limits assumed, looked up): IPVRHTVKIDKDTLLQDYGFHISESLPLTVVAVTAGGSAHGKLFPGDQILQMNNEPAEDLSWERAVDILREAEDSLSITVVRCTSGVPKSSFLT

T4: GRIP1_4, Q9Y3R0
T4 sequence (Q9Y3R0 467-571, limits assumed, looked up): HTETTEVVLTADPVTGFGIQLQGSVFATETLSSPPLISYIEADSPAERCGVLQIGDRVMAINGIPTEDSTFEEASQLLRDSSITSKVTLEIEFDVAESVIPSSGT

T5: HTRA4, P83105
T5 sequence (P83105 378-476, limits assumed, looked up): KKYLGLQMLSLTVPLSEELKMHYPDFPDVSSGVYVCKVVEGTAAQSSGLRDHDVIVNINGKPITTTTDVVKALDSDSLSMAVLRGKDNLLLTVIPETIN

T6: LIN7B, Q9HAP6
T6 sequence (Q9HAP6 88-185, limits assumed, looked up): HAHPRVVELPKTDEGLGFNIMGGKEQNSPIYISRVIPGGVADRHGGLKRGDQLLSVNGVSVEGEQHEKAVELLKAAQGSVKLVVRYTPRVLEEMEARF

T7: LIN7C, Q9NUP9
T7 sequence (Q9NUP9 88-185, limits assumed, looked up): T6 sequence (Q9HAP6 88-185, limits assumed, looked up) with A2S, D13E, V35I, V40I, Q65H, S79K, R89K, A96S

T8: LNX2_3, Q8N448
T8 sequence (Q8N448 463-564, limits assumed, looked up): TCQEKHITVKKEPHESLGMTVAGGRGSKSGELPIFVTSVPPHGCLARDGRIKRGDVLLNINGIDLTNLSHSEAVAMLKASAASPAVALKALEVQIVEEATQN

T9: MPP2, Q14168
T9 sequence (Q14168 180-250, limits assumed, looked up): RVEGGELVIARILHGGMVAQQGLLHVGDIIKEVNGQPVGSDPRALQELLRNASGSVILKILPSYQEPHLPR

T10: PDZD2_2, O15018
T10 sequence (O15018 329-429, limits assumed, looked up): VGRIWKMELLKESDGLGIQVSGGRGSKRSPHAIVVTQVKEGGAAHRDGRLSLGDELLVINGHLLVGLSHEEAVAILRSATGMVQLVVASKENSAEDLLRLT

T11: PDZD7_3, Q9H5P4
T11 sequence (Q9H5P4 857-944, limits assumed, looked up): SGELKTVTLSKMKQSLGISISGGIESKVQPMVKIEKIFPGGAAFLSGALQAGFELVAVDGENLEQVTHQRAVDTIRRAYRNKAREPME


target: T1, APBA3_1, O96018; experiment: holdup assay; design: key: below the threshold = too weak to quantify, mostly under pKd 3.1 to 4; settings: plain residues with an end cap or a label only (N-terminal biotin on a linker: ado-ado)

Binder | pKd
TSSMRGMDAV [RSRC2, Q7L4I2] | below the threshold
TLPRKRMSSI [GPRC6A, Q5T6X5] | below the threshold

target: ARHGEF12, Q9NZN5-2; experiment: holdup assay; design: key: below the threshold = too weak to quantify, mostly under pKd 3.1 to 4; settings: plain residues with an end cap or a label only (N-terminal biotin on a linker: ado-ado)
Sequence (Q9NZN5 other isoform, or with tags, fused parts or gaps): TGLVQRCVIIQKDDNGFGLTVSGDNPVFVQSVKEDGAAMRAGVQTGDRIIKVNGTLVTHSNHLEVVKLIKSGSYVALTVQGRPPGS

Binder | pKd
TSSMRGMDAV [RSRC2, Q7L4I2] | below the threshold
TLPRKRMSSI [GPRC6A, Q5T6X5] | 3.54

target: DLG4_1, P78352; experiment: holdup assay; design: key: below the threshold = too weak to quantify, mostly under pKd 3.1 to 4; settings: plain residues with an end cap or a label only (N-terminal biotin on a linker: ado-ado)
Sequence (P78352 62-152): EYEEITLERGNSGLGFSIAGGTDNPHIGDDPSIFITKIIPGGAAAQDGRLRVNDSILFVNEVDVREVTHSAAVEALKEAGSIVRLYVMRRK

Binder | pKd
TSSMRGMDAV [RSRC2, Q7L4I2] | 3.49
TLPRKRMSSI [GPRC6A, Q5T6X5] | below the threshold

target: T2, DVL3, Q92997; experiment: holdup assay; design: key: below the threshold = too weak to quantify, mostly under pKd 3.1 to 4; settings: plain residues with an end cap or a label only (N-terminal biotin on a linker: ado-ado)

Binder | pKd
TSSMRGMDAV [RSRC2, Q7L4I2] | below the threshold
TLPRKRMSSI [GPRC6A, Q5T6X5] | below the threshold

target: T3, FRMPD1, Q5SYB0; experiment: holdup assay; design: key: below the threshold = too weak to quantify, mostly under pKd 3.1 to 4; settings: plain residues with an end cap or a label only (N-terminal biotin on a linker: ado-ado)

Binder | pKd
TSSMRGMDAV [RSRC2, Q7L4I2] | below the threshold
TLPRKRMSSI [GPRC6A, Q5T6X5] | below the threshold

target: FRMPD2_1, Q68DX3; experiment: holdup assay; design: key: below the threshold = too weak to quantify, mostly under pKd 3.1 to 4; settings: plain residues with an end cap or a label only (N-terminal biotin on a linker: ado-ado)
Sequence (Q68DX3 770-861): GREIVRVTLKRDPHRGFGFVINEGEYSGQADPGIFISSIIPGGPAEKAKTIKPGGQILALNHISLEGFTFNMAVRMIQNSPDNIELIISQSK

Binder | pKd
TSSMRGMDAV [RSRC2, Q7L4I2] | below the threshold
TLPRKRMSSI [GPRC6A, Q5T6X5] | below the threshold

target: GRID2IP_1, A4D2P6; experiment: holdup assay; design: key: below the threshold = too weak to quantify, mostly under pKd 3.1 to 4; settings: plain residues with an end cap or a label only (N-terminal biotin on a linker: ado-ado)
Sequence (A4D2P6 1-87): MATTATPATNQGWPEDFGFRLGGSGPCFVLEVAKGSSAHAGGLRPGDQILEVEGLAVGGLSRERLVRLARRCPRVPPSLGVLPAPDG

Binder | pKd
TSSMRGMDAV [RSRC2, Q7L4I2] | below the threshold
TLPRKRMSSI [GPRC6A, Q5T6X5] | below the threshold

target: T4, GRIP1_4, Q9Y3R0; experiment: holdup assay; design: key: below the threshold = too weak to quantify, mostly under pKd 3.1 to 4; settings: plain residues with an end cap or a label only (N-terminal biotin on a linker: ado-ado)

Binder | pKd
TSSMRGMDAV [RSRC2, Q7L4I2] | below the threshold
TLPRKRMSSI [GPRC6A, Q5T6X5] | below the threshold

target: T5, HTRA4, P83105; experiment: holdup assay; design: key: below the threshold = too weak to quantify, mostly under pKd 3.1 to 4; settings: plain residues with an end cap or a label only (N-terminal biotin on a linker: ado-ado)

Binder | pKd
TSSMRGMDAV [RSRC2, Q7L4I2] | below the threshold
TLPRKRMSSI [GPRC6A, Q5T6X5] | below the threshold

target: IL16_4, Q14005; experiment: holdup assay; design: key: below the threshold = too weak to quantify, mostly under pKd 3.1 to 4; settings: plain residues with an end cap or a label only (N-terminal biotin on a linker: ado-ado)
Sequence (Q14005 1229-1329): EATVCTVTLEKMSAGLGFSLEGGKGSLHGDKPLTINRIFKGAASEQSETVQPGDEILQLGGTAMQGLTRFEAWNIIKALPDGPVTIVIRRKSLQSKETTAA

Binder | pKd
TSSMRGMDAV [RSRC2, Q7L4I2] | below the threshold
TLPRKRMSSI [GPRC6A, Q5T6X5] | below the threshold

target: Inadl_1, Q8NI35; experiment: holdup assay; design: key: below the threshold = too weak to quantify, mostly under pKd 3.1 to 4; settings: plain residues with an end cap or a label only (N-terminal biotin on a linker: ado-ado)
Sequence (Q8NI35 113-229): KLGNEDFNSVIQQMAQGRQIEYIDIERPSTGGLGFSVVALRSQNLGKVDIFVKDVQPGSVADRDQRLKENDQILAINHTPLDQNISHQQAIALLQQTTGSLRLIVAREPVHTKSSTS

Binder | pKd
TSSMRGMDAV [RSRC2, Q7L4I2] | below the threshold
TLPRKRMSSI [GPRC6A, Q5T6X5] | below the threshold

target: Inadl_3, Q8NI35; experiment: holdup assay; design: key: below the threshold = too weak to quantify, mostly under pKd 3.1 to 4; settings: plain residues with an end cap or a label only (N-terminal biotin on a linker: ado-ado)
Sequence (Q8NI35 359-469): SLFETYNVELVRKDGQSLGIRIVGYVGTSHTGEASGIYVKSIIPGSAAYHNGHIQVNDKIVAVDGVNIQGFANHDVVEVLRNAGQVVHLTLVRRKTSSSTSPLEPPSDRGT

Binder | pKd
TSSMRGMDAV [RSRC2, Q7L4I2] | below the threshold
TLPRKRMSSI [GPRC6A, Q5T6X5] | below the threshold

target: Inadl_6, Q8NI35; experiment: holdup assay; design: key: below the threshold = too weak to quantify, mostly under pKd 3.1 to 4; settings: plain residues with an end cap or a label only (N-terminal biotin on a linker: ado-ado)
Sequence (Q8NI35 1058-1167): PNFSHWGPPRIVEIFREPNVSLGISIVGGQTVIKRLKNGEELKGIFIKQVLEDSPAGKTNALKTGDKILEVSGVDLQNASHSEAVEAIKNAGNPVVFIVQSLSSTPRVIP

Binder | pKd
TSSMRGMDAV [RSRC2, Q7L4I2] | below the threshold
TLPRKRMSSI [GPRC6A, Q5T6X5] | below the threshold

target: Inadl_8, Q8NI35; experiment: holdup assay; design: key: below the threshold = too weak to quantify, mostly under pKd 3.1 to 4; settings: plain residues with an end cap or a label only (N-terminal biotin on a linker: ado-ado)
Sequence (Q8NI35 1425-1530): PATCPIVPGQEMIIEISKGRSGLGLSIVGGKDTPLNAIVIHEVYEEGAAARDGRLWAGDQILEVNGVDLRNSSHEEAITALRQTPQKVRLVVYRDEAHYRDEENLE

Binder | pKd
TSSMRGMDAV [RSRC2, Q7L4I2] | below the threshold
TLPRKRMSSI [GPRC6A, Q5T6X5] | 3.77

target: Inadl_9, Q8NI35; experiment: holdup assay; design: key: below the threshold = too weak to quantify, mostly under pKd 3.1 to 4; settings: plain residues with an end cap or a label only (N-terminal biotin on a linker: ado-ado)
Sequence (Q8NI35 1530-1615): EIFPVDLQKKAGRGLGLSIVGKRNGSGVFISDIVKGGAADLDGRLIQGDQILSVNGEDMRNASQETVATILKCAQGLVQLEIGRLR

Binder | pKd
TSSMRGMDAV [RSRC2, Q7L4I2] | below the threshold
TLPRKRMSSI [GPRC6A, Q5T6X5] | below the threshold

target: T6, LIN7B, Q9HAP6; experiment: holdup assay; design: key: below the threshold = too weak to quantify, mostly under pKd 3.1 to 4; settings: plain residues with an end cap or a label only (N-terminal biotin on a linker: ado-ado)

Binder | pKd
TSSMRGMDAV [RSRC2, Q7L4I2] | below the threshold
TLPRKRMSSI [GPRC6A, Q5T6X5] | 3.75

target: T7, LIN7C, Q9NUP9; experiment: holdup assay; design: key: below the threshold = too weak to quantify, mostly under pKd 3.1 to 4; settings: plain residues with an end cap or a label only (N-terminal biotin on a linker: ado-ado)

Binder | pKd
TSSMRGMDAV [RSRC2, Q7L4I2] | 3.97
TLPRKRMSSI [GPRC6A, Q5T6X5] | below the threshold

target: LNX1_3, Q8TBB1; experiment: holdup assay; design: key: below the threshold = too weak to quantify, mostly under pKd 3.1 to 4; settings: plain residues with an end cap or a label only (N-terminal biotin on a linker: ado-ado)
Sequence (Q8TBB1 500-596): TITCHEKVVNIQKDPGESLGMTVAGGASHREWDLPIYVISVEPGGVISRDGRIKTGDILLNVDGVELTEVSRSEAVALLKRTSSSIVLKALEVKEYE

Binder | pKd
TSSMRGMDAV [RSRC2, Q7L4I2] | below the threshold
TLPRKRMSSI [GPRC6A, Q5T6X5] | below the threshold

target: T8, LNX2_3, Q8N448; experiment: holdup assay; design: key: below the threshold = too weak to quantify, mostly under pKd 3.1 to 4; settings: plain residues with an end cap or a label only (N-terminal biotin on a linker: ado-ado)

Binder | pKd
TSSMRGMDAV [RSRC2, Q7L4I2] | below the threshold
TLPRKRMSSI [GPRC6A, Q5T6X5] | below the threshold

target: MAGI2_5, Q86UL8; experiment: holdup assay; design: key: below the threshold = too weak to quantify, mostly under pKd 3.1 to 4; settings: plain residues with an end cap or a label only (N-terminal biotin on a linker: ado-ado)
Sequence (Q86UL8 915-1017): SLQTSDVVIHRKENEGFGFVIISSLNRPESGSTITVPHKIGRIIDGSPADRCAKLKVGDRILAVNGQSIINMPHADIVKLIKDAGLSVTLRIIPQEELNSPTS

Binder | pKd
TSSMRGMDAV [RSRC2, Q7L4I2] | below the threshold
TLPRKRMSSI [GPRC6A, Q5T6X5] | below the threshold

target: MAST2, Q6P0Q8; experiment: holdup assay; design: key: below the threshold = too weak to quantify, mostly under pKd 3.1 to 4; settings: plain residues with an end cap or a label only (N-terminal biotin on a linker: ado-ado)
Sequence (Q6P0Q8 1099-1202): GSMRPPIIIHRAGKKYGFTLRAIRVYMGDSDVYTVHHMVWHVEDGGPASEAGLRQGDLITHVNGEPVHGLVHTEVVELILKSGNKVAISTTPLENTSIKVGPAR

Binder | pKd
TSSMRGMDAV [RSRC2, Q7L4I2] | below the threshold
TLPRKRMSSI [GPRC6A, Q5T6X5] | 4.82

target: T9, MPP2, Q14168; experiment: holdup assay; design: key: below the threshold = too weak to quantify, mostly under pKd 3.1 to 4; settings: plain residues with an end cap or a label only (N-terminal biotin on a linker: ado-ado)

Binder | pKd
TSSMRGMDAV [RSRC2, Q7L4I2] | below the threshold
TLPRKRMSSI [GPRC6A, Q5T6X5] | below the threshold

target: NHERF4_1, Q86UT5-2; experiment: holdup assay; design: key: below the threshold = too weak to quantify, mostly under pKd 3.1 to 4; settings: plain residues with an end cap or a label only (N-terminal biotin on a linker: ado-ado)
Sequence (Q86UT5 other isoform, or with tags, fused parts or gaps): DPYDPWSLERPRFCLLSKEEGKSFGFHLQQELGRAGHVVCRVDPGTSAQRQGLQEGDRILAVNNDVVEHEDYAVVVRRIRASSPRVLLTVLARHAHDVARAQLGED

Binder | pKd
TSSMRGMDAV [RSRC2, Q7L4I2] | 3.91
TLPRKRMSSI [GPRC6A, Q5T6X5] | below the threshold

target: NHERF4_4, Q86UT5; experiment: holdup assay; design: key: below the threshold = too weak to quantify, mostly under pKd 3.1 to 4; settings: plain residues with an end cap or a label only (N-terminal biotin on a linker: ado-ado)
Sequence (Q86UT5 464-550): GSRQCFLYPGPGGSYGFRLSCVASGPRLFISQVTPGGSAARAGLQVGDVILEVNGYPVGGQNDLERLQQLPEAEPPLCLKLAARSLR

Binder | pKd
TSSMRGMDAV [RSRC2, Q7L4I2] | 3.82
TLPRKRMSSI [GPRC6A, Q5T6X5] | 3.88

target: T10, PDZD2_2, O15018; experiment: holdup assay; design: key: below the threshold = too weak to quantify, mostly under pKd 3.1 to 4; settings: plain residues with an end cap or a label only (N-terminal biotin on a linker: ado-ado)

Binder | pKd
TSSMRGMDAV [RSRC2, Q7L4I2] | below the threshold
TLPRKRMSSI [GPRC6A, Q5T6X5] | 4.22

target: T11, PDZD7_3, Q9H5P4; experiment: holdup assay; design: key: below the threshold = too weak to quantify, mostly under pKd 3.1 to 4; settings: plain residues with an end cap or a label only (N-terminal biotin on a linker: ado-ado)

Binder | pKd
TSSMRGMDAV [RSRC2, Q7L4I2] | below the threshold
TLPRKRMSSI [GPRC6A, Q5T6X5] | below the threshold
